Test results taken from patent US20220153839A1 (NBE THERAPEUTICS, published 2022).
Each block holds one binder with its values, some of them ahead of it.

Key:
[1] = target: T1, human ROR1, full length, on cells (human, UniProt Q01973 30-937); assay: flow cytometry on human cancer cell lines; 2A2 2 µg/mL; anti-human IgG (Fcγ) PE
T1 construct: whole, on cells; Ectopic on 63-12, K562, EMT-6 and HEK293 cells; also called hROR1; cell surface human ROR1
Experimental: 5×10⁵ of each cell type were added per well to 96-well plates. Plates were centrifuged (3 min, 1300 rpm) with re-suspension in buffer (PBS supplemented with 2% (v/v) of FCS). […] Plates were then incubated on ice for 30 min and washed with 200 μL of buffer prior to resuspension in 200 μL of buffer supplemented with anti-human IgG antibody (Fc gamma-specific) PE (eBioscience 12-4998-82) at a 1:250 dilution. Following 30 min incubation on ice and one washing, cells were analyzed using a FACSCalibur instrument (BD Biosciences) and data was analyzed using FlowJo analytical software (Tree Star, Ashland, Oreg.).

[2] = target: T1, human ROR1, full length, on cells; assay: cell-based or functional assay
[3] = target: T1, human ROR1, full length, on cells; assay: cell-based or functional assay; remark: listed apart in the source
[4] = target: T1, human ROR1, full length, on cells; assay: cell-based or functional assay; remark: listed apart in the source
[5] = target: T1, human ROR1, full length, on cells; assay: cell-based or functional assay; remark: listed apart in the source
[6] = target: T1, human ROR1, full length, on cells; assay: cell-based or functional assay; remark: listed apart in the source
[7] = target: T1, human ROR1, full length, on cells; assay: cell-based or functional assay; remark: listed apart in the source
[8] = target: T1, human ROR1, full length, on cells; assay: cell-based or functional assay; remark: listed apart in the source
hROR2 = target: T2, hROR2 (human, UniProt Q01974); assay: flow cytometry on T47D cells (ROR2 positive, ROR1 negative); APC goat anti-human Fcγ
T2 construct: full length, on the cell surface; also called 63-12 / hROR2; ROR2 on T47D cells
Experimental: Flow cytometry: Cells were stained using standard flow cytometry methodology. Briefly, for purified anti-ROR1 Fab (FIG. 3), 0.1-1×10⁶ cells were stained with 1000 ng/100 μL of Fab on ice for 1 h. After washing twice with ice-cold flow cytometry buffer (PBS containing 1% (v/v) BSA, 0.1% sodium azide and 1 mM EDTA), the cells were incubated with a 1:1000 dilution of a mouse anti-His tag mAb conjugated to Alexa Fluor 488 (Qiagen) in 100 μL flow cytometry buffer on ice for 30 min. For purified anti-ROR1 IgG1 (FIG. 8), 0.1-1×10⁶ cells were blocked by 4% goat serum for 15 min at room temperature and then incubated with 100 ng/100 μL of IgG on ice for 1 h. After washing twice with ice-cold flow cytometry buffer, cells were stained with a 1:500 dilution of goat anti-human IgG, Fcγ pAbs conjugated to APC (Jackson ImmunoResearch) in 100 μL flow cytometry buffer on ice for 30 min. For commercial goat anti human ROR1 polyclonal antibody (FIG. 8), 0.1-1×10⁶ cells were stained with 200 ng/100 μL of Ab on ice for 1 h. […] Finally, 4′,6-diamidino-2-phenylindole (DAPI) was added to a final concentration of 100 ng/mL to exclude dead cells from the analysis. Cells were analyzed using a FACSCalibur instrument (BD Biosciences) and FlowJo analytical software (Tree Star, Ashland, Oreg.).

T1 sequence (Q01973 30-937): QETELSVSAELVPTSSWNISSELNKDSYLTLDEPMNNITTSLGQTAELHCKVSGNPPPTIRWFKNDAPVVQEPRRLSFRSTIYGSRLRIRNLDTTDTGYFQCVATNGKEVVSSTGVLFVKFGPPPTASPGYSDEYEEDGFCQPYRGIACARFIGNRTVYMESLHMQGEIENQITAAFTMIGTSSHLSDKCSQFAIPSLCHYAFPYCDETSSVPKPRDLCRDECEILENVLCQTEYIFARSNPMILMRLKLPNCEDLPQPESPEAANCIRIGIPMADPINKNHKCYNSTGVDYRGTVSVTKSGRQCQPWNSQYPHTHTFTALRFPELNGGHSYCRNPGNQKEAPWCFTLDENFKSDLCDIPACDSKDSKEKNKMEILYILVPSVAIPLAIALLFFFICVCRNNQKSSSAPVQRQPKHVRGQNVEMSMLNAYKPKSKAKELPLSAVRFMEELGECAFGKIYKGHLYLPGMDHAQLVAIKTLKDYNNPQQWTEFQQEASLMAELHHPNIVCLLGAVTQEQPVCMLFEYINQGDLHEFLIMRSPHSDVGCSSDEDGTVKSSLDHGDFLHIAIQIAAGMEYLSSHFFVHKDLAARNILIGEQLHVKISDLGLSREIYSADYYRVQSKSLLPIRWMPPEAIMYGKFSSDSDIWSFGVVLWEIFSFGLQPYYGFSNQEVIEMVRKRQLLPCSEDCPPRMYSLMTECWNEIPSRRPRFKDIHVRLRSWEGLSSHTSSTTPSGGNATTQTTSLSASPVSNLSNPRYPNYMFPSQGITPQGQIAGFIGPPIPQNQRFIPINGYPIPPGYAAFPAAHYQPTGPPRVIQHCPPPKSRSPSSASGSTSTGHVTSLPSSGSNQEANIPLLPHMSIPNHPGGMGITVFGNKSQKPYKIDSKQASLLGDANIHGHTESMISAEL
T2 sequence (Q01974 34-943 limits assumed): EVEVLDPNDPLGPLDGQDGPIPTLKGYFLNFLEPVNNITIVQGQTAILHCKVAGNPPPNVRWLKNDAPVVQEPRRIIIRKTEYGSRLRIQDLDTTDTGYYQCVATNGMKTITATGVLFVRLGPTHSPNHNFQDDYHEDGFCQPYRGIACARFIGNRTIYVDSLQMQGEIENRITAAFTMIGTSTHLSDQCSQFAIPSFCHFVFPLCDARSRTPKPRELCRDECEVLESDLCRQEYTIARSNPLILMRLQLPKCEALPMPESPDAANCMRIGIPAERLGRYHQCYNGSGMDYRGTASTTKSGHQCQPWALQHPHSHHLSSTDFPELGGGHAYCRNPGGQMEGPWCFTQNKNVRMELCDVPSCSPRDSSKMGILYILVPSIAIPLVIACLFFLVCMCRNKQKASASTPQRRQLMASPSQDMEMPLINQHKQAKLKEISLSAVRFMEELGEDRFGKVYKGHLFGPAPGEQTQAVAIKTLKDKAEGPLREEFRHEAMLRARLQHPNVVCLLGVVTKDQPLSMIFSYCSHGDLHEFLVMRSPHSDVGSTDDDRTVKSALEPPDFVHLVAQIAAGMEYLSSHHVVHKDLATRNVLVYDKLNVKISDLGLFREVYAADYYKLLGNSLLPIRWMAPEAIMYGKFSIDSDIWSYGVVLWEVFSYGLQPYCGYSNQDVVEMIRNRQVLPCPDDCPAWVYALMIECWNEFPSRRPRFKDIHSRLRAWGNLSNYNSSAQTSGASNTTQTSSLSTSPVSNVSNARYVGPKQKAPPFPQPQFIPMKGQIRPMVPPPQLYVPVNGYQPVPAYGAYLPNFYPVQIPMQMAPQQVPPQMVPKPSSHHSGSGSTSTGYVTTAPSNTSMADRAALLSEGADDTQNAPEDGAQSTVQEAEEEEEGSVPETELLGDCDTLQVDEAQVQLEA

B1: 2A2 (mAb066) IgG (antibody)
heavy: not shown
light: DIVMTQSQKIMSTTVGDRVSITCKASQNVDAAVAWYQQKPGQSPKLLIYSASNRYTGVPDRFTGSGSGTDFTLTISNMQSEDLADYFCQQYDIYPYTFGGGTKLEIKRTVAAPSVFIFPPSDEQLKSGTASVVCLLNNFYPREAKVQWKVDNALQSGNSQESVTEQDSKDSTYSLSSTLTLSKADYEKHKVYACEVTHQGLSSPVTKSFNRGECGGGGSLPETGGWSHPQFEK
notes: Known anti-ROR1 antibody (WO 2010/124188), murine-human chimeric IgG1; tags HC: LPETG-Strep, LC: G5SLPETG-Strep; they may be variable domains only
- binding result [1]: binds

B2: XBR1-402-G5-PNU antibody drug conjugate (other)
VH: QEQQKESGGGLFKPTDTLTLTCTASGFDISSYYMSWVRQAPGNGLEWIGAIGISGNAYYASWAKSRSTITRNTNLNTVTLKMTSLTAADTATYFCARDHPTYGMDLWGPGTLVTVSS
VL: SYELTQLPSVSVSLGQTARITCEGNNIGSKAVHWYQQKPGLAPGLLIYDDDERPSGVPDRFSGSNSGDTATLTISGAQAGDEADYYCQVWDSSAYVFGGGTQLTVTG
modifications: Gly5-EDA-PNU joined by sortase to the LPET of the C-terminal G5SLPETG tag of the full light chain; Gly5-EDA-PNU (PNU-159682 derivative) joined by sortase to the LPET of the C-terminal LPETG tag of the full heavy chain
- IC50 of in vitro cell killing, hROR1-overexpressing EMT-6 (clone 14) [2]: 0.015 µg/mL
- IC50 of in vitro cell killing, hROR1-overexpressing EMT-6 [3]: 0.0011 µg/mL
- IC50 of in vitro cell killing, 697 cells [4]: 0.0176 µg/mL
- IC50 of in vitro cell killing, HS 578T cells (hROR1 status positive) [5]: 1.4 µg/mL
- IC50 values on 697 cells (in vitro cell killing) [6]: 0.212 µg/mL
- IC50 (cell killing of Kasumi-2 cells, luminescence) [7]: 0.0012 µg/mL
- IC50 (cell killing of 697 cells, luminescence) [8]: 0.0757 µg/mL

Second part, the binder after the results:

- binding result (hROR2): no binding (tested: 100 ng/100 µL)
B3: ERR1-TOP54 (antibody, IgG1, V domains shown)
VH: QSLEESGGRLVTPGTPLTLTCTASGFSLSDYYMSWVRQAPGEGLEWIGTIYGGSGNTWYATWAKGRFTISKTSTTVDLKITSPTTEDTATYFCARDFGLSTGGLWGPGTLVTISS
VL: SYELTQLPSVSVSLGQTARITCGGNSIGSKAVNWYQQKPGLAPGLLIYDDDERPSGVPDRFSGSNSGDTATLTISGAQAGDEADYYCQLWDSSARAFVFGGGTQLTVTG
notes: also called ERR1-TOP54 chimeric rabbit/human IgG1

- binding result (hROR2): no binding (tested: 100 ng/100 µL)
B4: ERR1-TOP43 chimeric rabbit/human IgG1 (antibody, V domains shown)
VH: QSLEESGGRLVTPGTPLTLTCTVSGFSLSSYWMSWVRQAPGKGLEWIGAIYGSGNTYYASWAKGRFTISKTSTTVDLKITSPTTEDTATYFCARDVHSTATDLWGPGTLVTISS
VL: SYELTQLPSVSVSLGQTARITCGGNNIGSKAVNWYQQKPGLAPGLLIYNDDERPSGVPDRFSGSNSGDTATLTISGAQAGDEADYYCQLWDSSAGAYVFGGGTQLTVTG
notes: Rabbit variable domains on human IgG1 constant regions (pCEP4), lambda light chain, from HEK 293F cells
